Target: T1, Pin1 (Homo sapiens, UniProt Q13526)
T1 construct: fusion protein containing full length Pin1 was bacterially expressed, purified; made in house
Experiment: Precipitation with GST-Pin1 beads of synthesized phosphoproteins incubated with interphase and mitotic Xenopus extracts
Assay type: binding
Design: key: +: a week but above background interaction; ++: readily detectable interaction; +++: strong interaction
Conditions: for Interaction with Pin1, Mitotic: mitotic Xenopus extracts
Method: The binding between Pin1 and all selected mitotic phosphoproteins was assayed by incubating synthesized proteins with interphase and mitotic Xenopus extracts, followed by precipitation with GST-Pin1beads. The Pin1 interactions with those proteins indicated with * were also confirmed by GST-Pin1 pull-down assay from endogenous interphase and mitotic HeLa cell extracts. +, a week but above background interaction; ++, readily detectable interaction; +++, strong interaction.
The mitotic phosphoproteins were translated in vitro using the TNT coupled transcription/translation kit (Promega) in a total volume of 10 μl in the presence of 8 μCi [^35S]methionine (1000 Ci/mmol) for 2 h at 30° C. They were then incubated in xenopus interphase and mitotic extracts as described (Stukenberg et al., 1997). These incubated clones were precipitated by Pin1 beads as described below. The Xenopus Mos and Weel clones were a kind gift of M. Murakami, G, F. Woude and J. Cooper; the Xenopus Cdc25 clone was a generous gift of W. Dunphy, T3 and T3S2 Cdc25 mutants were kindly provided by J. Maller (Izumi and Maller, 1993).
To detect Pin1-binding proteins, either HeLa cells were lysed in or Xenopus extracts were diluted in a buffer (buffer A) containing 50 mM Tris-HCl, pH 8.0, 200 mM NaCl, 100 mM NaF, 1 mM sodium orthovanadate, 10% glycerol, 1% Triton X100, 10 μg/ml aprotinin, 50 μg/ml phenylmethylsulfonyl fluoride and 1 mM DTT. The lysates were preclarified with boiled S. aureus bacteria (CalBiochem) and then incubated with 10 μl of agarose beads containing various GST-Pin1 proteins or control GST for 2 h at 4° C. The precipitated proteins were washed 5 times in the same buffer and subjected to immunoblotting analysis. Immunoprecipitation and immunoblotting analysis using MPM-2 antibody (Davis et al. 1983), which was kindly provided by J. Kuang, Pin1 antibodies (Lu et al., 1996, kindly provided by M. White or newly generated), anti-phospho.Tyr antibody (UBI), anti-Cdc25C (Ogg, et al., 1994) (from H. Piwnica-Worms and Santa Cruz Biotechnology), anti-Cdc27, anti-Plk1 (Zymed), anti-Cdc2 (Solomon, M. J., M. Glotzer, T. H. Lee, M. Philippe and M. W. Kirschner. Cell 63:1013-1024 (1991), anti-human Myt1, anti-human cyclin B1 and anti-Xenopus cyclin B were performed, as described previously in Lu and Hunter, 1995; Lu et al., 1996).
To gain a sense of the generality of the interaction between Pin1 and mitotic phosphoproteins and to confirm the Pin1 interaction with target proteins is indeed mediated by phosphorylation, the ability of Pin1 to bind other known mitotic phosphoproteins and a set of mitotic phosphoproteins identified by a systematic phosphoprotein screen (Stukenberg et al., Curr Biol 7:338-348 (1997). Proteins synthesized in vitro were phosphorylated in a cell cycle specific manner by incubating them in either Xenopus interphace or mitotic extracts. These labeled protein were subsequently incubated with GST-Pin1 beads that were extensively washed and the bound proteins analyzed by SDS-PAGE. To validate this method, Cdc25 was first tested. Again, the mitotically phosphorylated form of in vitro translated Cdc25 could be precipitated by GST-Pin1 beads. However, Cdc25 was not recognized by Pin1 if it was incubated in interphase extracts. […] Out of the 13 mitotic phosphoproteins examined, Pin1 bound 10 in a mitosis and phosphorylation-dependent manner (summarized in Table 1), including Weel, MP75 and MP110, MP75 and MP110 are Xenopus proteins related to microtubule-associated protein E-MAP-115 and the fission yeast G2 transcription factor Cdc5, respectively.

T1 sequence (Q13526 whole entry, the tested form may be a part): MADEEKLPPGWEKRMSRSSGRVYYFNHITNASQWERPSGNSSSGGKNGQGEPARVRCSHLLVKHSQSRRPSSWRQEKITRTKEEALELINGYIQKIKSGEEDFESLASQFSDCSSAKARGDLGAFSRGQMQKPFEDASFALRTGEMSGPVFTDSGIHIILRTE

Molecule	Interaction with Pin1, Mitotic	Interaction with Pin1, Interphase (interphase Xenopus extracts)
Cdc25: mitotic phosphoprotein, phosphatase; Xenopus Cdc25 clone translated in vitro (protein) STELFSSTREEGSSGSGPSFRSNQRKMLNLLLERDTSFTVCPDVPRTPVGKFLGDSANLSILSGGTPKRCLDLSNLSSGEITATQLTTSADLDETGHLDSSGLQEVHLAGMNHDQHLMKCSPAQLLCSTPNGLDRGHRKRDAMCSSSANKENDNGNLVDSEMKYLGSPITTVPKLDKNPNLGEDQAEEISDELMEFSLKDQEAKVSRSGLYRSPSMPENLNRPRLKQVEKFKDNTIPDKVKKKYFSGQGKLRKGLCLKKTVSLCDITITQMLEEDSNQGHLIGDFSKVCALPTVSGKHQDLKYVNPETVAALLSGKFQGLIEKFYVIDCRYPYEYLGGHIQGALNLYSQEELFNFFLKKPIVPLDTQKRIIIVFHCEFSSERGPRMCRCLREEDRSLNQYPALYYPELYILKGGYRDFFPEYMELCEPQSYCPMHHQDHKTELLRCRSQSKVQEGERQLREQIALLVKDMSP	+++	–
Plx1: mitotic phosphoprotein (protein) MAQVAGKKLTVAPEAAKPPGIPGSSSAVKEIPEILVDPRTRRRYLRGRFLGKGGFAKCYEITDLESREVFAGKIVPKTMLLKPHQKDKMTMEIAIQRSLDHRHVVGFHGFFEDNDFVYVVLELCRRRSLLELHKRRKAVTEPEARYYLKQTISGCQYLHSNRVIHRDLKLGNLFLNDEMEVKIGDFGLATKVEYDGERKKTLCGTPNYIAPEVLGKKGHSFEVDIWSIGCIMYTLLVGKPPFETSCLKETYMRIKKNEYSIPKHINPVAAALIQKMLRSDPTSRPTIDDLLNDEFFTSGYIPSRLPTTCLTVPPRFSIAPSTIDQSLRKPLTAINKGQDSPLVEKQVAPAKEEEMQQPEFTEPADCYLSEMLQQLTCLNAVKPSERALIRQEEAEDPASIPIFWISKWVDYSDKYGLGYQLCDNSVGVLFNDSTRLIMYNDGDSLQYIERNNTESYLNVRSYPTTLTKKITLLKYFRNYMSEHLLKAGANTTPREGDELARLPFLRTWFRTRSAIILHLSNGTVQINFFQDHTKIILCPLMAAVSYIDEKREFRTYKLSLIQEFGCCKELASRLRYARTMVEKLQSSKSAVAHVKASA	+++	–
Mos: mitotic phosphoprotein, Xenopus Mos clone (protein) MPSPIPVERFLPRDLSPSIDLRPCSSPLELSHRKLPGGLPACSGRPRLLPPRLAWCSIDWEQVLLLEPLGSGGFGSVYRATYRGETVALKKVKRSTKNSLASRQSFWAELNAARLRHPHVVRVVAASASCPGDPGCPGTIIMEYTGTGTLHQRIYGRSPPLGAEICMRYARHVADGLRFLHRDGVVHLDLKPANVLLAPGDLCKIGDFGCSQRLREGDEAAGGEPCCTQLRHVGGTYTHRAPELLKGEPVTAKADIYSFAITLWQMVSRELPYTGDRQCVLYAVVAYDLRPEMGPLFSHTEEGRAARTIVQSCWAARPQERPNAEQLLERLEQECAMCTGGPPSCSPESNAPPPLGTGL	++	+

Reference: US6462173B1, “Inhibitors of phosphoserine and phosphothreonine-proline-specific isomerases” (Max-Planck-Gesellschaft zur Forderung der, priority 1997, dated 2002)
